We go through seven molecules from patent US6710026B1, “Protein domains in the hepatic glycogen-targetting subunit of protein phosphatase 1 and methods of making and using the same” (Medical Research Counsel, priority 1998, dated 2004).

In one data set the test system is PP1. Conditions: recent studies; cited from earlier work.
For the next data set, the system named is PP1GL complex. Conditions: previous experiments; cited from earlier work.
Data set [1] is described as follows: Co-sedimentation of GST-GL fusion proteins with hepatic glycogen. In kind it is binding, rabbit. On the procedure:
Protein free glycogen was prepared by the following protocol. Glycogen-protein particles were isolated from the livers of New Zealand White rabbits. Protein was then stripped from the glycogen by boiling for 5 min in 1% (w/v) sodium dodecyl sulphate (SDS). The suspension was cooled to room temperature and centrifuged for 60 min at 100,000×g. The 100,000×g pellet was then resuspended in water, and the centrifugation and resuspension procedure repeated a further two times in order to completely remove residual SDS and protein. Any contaminating nucleotides were removed by incubating the glycogen for 15 min with mixed bed resin, AG 501-X8(D). The resin was removed by filtration and the glycogen concentration determined by the phenol/sulphuric acid method.
Protein free glycogen (10 mg/ml) in 50 mM Tris/HCl pH 7.5, 150 mM NaCl, 0.1% (v/v) 2-mercaptoethanol, 0.02% (w/v) Brij-35, 0.1 mg/ml bovine serum albumin was mixed with GST-GL fusion proteins (50 nM). […] The supernatant and pellet fractions were denatured in SDS, subjected to SDS-polyacrylamide gel electrophoresis and transferred to nitrocellulose. […]

The next data set concerns the target PP1γ (Homo sapiens, UniProt P36873). Nature of the data set: Blot overlay binding of digoxigenin-labelled PP1γ to GST-GL fusion proteins. The settings on record: fusion proteins on nitrocellulose membranes. On the procedure:
(§1) GST-GL fusion proteins were separated on SDS-PAGE and transferred to nitrocellulose membranes. They were probed with digoxigenin-PP1γ. Alternatively they were examined for binding of ^32P-labelled phosphorylase a. Non-specific binding to the membranes was blocked by incubation in 5% (w/v) marvel dried milk powder, 25 mM Tris/HCI pH 7.5, 500 mM NaCl for 16 hours. The samples were then probed for 3 h with ^32P-labelled phosphorylase a (100 nM) in 25 mM Tris/HCl pH 7.5, 250 mM NaCl, 1 mg/ml bovine serum albumin. The membranes were subsequently washed (3×30 min) with 25 mM Tris/HCl pH 7.5 before autoradiography.

For the next data set, the target named is T1, phosphorylase a (Oryctolagus cuniculus, UniProt P00489).
T1 sequence (P00489 2-843 limits assumed): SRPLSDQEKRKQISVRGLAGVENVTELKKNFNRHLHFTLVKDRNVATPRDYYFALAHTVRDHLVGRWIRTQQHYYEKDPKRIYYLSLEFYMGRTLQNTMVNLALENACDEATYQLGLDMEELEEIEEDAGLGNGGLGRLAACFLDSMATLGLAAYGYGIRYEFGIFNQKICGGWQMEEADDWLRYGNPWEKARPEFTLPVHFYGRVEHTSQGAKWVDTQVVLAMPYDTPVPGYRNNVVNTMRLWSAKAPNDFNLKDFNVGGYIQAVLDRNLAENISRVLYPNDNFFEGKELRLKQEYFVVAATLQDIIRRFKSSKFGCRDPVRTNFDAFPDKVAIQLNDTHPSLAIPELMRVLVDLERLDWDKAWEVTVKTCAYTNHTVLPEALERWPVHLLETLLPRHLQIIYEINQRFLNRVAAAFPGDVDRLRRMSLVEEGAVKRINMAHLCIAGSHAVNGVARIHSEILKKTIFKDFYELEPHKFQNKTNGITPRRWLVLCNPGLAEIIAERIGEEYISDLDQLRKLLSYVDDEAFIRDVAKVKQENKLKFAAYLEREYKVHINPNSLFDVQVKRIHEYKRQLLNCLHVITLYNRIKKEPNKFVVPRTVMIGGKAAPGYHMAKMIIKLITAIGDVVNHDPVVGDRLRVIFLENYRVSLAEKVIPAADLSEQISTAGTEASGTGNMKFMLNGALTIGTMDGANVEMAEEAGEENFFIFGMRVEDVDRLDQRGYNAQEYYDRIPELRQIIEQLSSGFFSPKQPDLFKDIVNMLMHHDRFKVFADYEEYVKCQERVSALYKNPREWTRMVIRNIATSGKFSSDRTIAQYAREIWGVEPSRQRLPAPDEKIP
Nature of the data set: Blot overlay binding of 32P-labelled phosphorylase a to GST-GL fusion proteins. The settings on record: 100 nM 32P-phosphorylase a, fusion proteins on nitrocellulose membranes. The method, then: as §1

Sequence of PP1γ (P36873 whole entry, the tested form may be a part): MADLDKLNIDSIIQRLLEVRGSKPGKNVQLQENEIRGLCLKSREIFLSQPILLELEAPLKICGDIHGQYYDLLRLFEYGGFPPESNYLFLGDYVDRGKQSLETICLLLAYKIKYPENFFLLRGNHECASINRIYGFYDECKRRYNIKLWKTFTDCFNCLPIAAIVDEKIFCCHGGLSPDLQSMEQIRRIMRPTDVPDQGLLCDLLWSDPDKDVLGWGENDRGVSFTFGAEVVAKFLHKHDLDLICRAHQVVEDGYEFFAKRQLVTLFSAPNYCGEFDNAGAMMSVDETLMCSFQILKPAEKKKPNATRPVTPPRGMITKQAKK

With “GM 63-75: peptide of amino acids 63 to 75 of GM (RVSFADSFGFNLV; UniProt Q16821 63-75, looked up, fragment)”, the “binding to PP1” value with PP1 is given as “shown to bind PP1”.

With “GM 63-93: peptide comprising residues 63-93 of the skeletal muscle glycogen targeting subunit (RVSFADSFGFNLVSVKEFDCWELPSASTTFD; UniProt Q16821 63-93, looked up, fragment)”, the “disruption of the PP1GL complex” value in the data set with PP1GL complex was “did not abolish binding of GL to PP1”. On to “M110 1-38: peptide comprising the amino terminal 38 residues of the M110 subunit of the myosin targeting subunit of PP1 (MKMADAKQKRNEQLKRWIGSETDLEPPVVKRQKTKVKF; UniProt O14974 1-38, looked up, fragment)”, for which the “disruption of the PP1GL complex” value with PP1GL complex is on record as “could disrupt the PP1GL complex”.

B1: GST-GL(94-284): GST fused to GL residues 94-284 (protein)
chain: LLDNIVSLTTAESESFVLDFPQPSADYLDFRNRLQTNHVCLENCVLKEKAIAGTVKVQNLAFEKVVKIRMTFDTWKSFTDFPCQYVKDTYAGSDRDTFSFDISLPEKIQSYERMEFAVCYECNGQSYWDSNKGKNYRITRAELRSTQGMTEPYNGPDFGISFDQFGSPRCSFGLFPEWPSYLGYEKLGPYY
modifications: left off: a dimerising Fc or GST
Regarding B1, the “co-sedimentation with glycogen (binding to glycogen)” value in data set [1] (protein free glycogen 10 mg/ml, fusion protein 50 nM, 100,000×g, immunoblot of supernatant and pellet) is given as “detected exclusively in the 100,000×g pellet”. Moreover, in the data set with PP1γ, the “binding of digoxigenin-labelled PP1γ” value is recorded as “not”.

B2: GST-GL(170-284): GST fused to GL residues 170-284 (protein)
chain: SFTDFPCQYVKDTYAGSDRDTFSFDISLPEKIQSYERMEFAVCYECNGQSYWDSNKGKNYRITRAELRSTQGMTEPYNGPDFGISFDQFGSPRCSFGLFPEWPSYLGYEKLGPYY
modifications: left off: a dimerising Fc or GST
For B2, the “binding of digoxigenin-labelled PP1γ” value with PP1γ is recorded as “not”.

B3: GST-GL: glutathione S-transferase fused to the full-length GL coding region (residues 1-284) of rat liver GL (protein)
chain: MAVDIEYSYSSMAPSLRRERFTFKISPKLNKPLRPCIQLGSKDEAGRMVAPTVQEKKVKKRVSFADNQGLALTMVKVFSEFDDPLDIPFNITELLDNIVSLTTAESESFVLDFPQPSADYLDFRNRLQTNHVCLENCVLKEKAIAGTVKVQNLAFEKVVKIRMTFDTWKSFTDFPCQYVKDTYAGSDRDTFSFDISLPEKIQSYERMEFAVCYECNGQSYWDSNKGKNYRITRAELRSTQGMTEPYNGPDFGISFDQFGSPRCSFGLFPEWPSYLGYEKLGPYY
modifications: left off: a dimerising Fc or GST
notes: glutathione S-transferase fused to the full-length GL coding region (residues 1-284) of rat liver GL
On to B3, for which the “aggregation (pelleted in the absence of glycogen)” value in data set [1] (100 000×g for 1 h, absence of glycogen) is “strong tendency to aggregate”. Also, in the data set with phosphorylase a, the “binding of 32P-labelled phosphorylase a” value is listed as “found to bind”. For the same molecule, the “binding of digoxigenin-labelled PP1γ” value with PP1γ is recorded as “binds”.

B4: GST-GL(134-284): GST fused to GL residues 134-284 (protein)
chain: LENCVLKEKAIAGTVKVQNLAFEKVVKIRMTFDTWKSFTDFPCQYVKDTYAGSDRDTFSFDISLPEKIQSYERMEFAVCYECNGQSYWDSNKGKNYRITRAELRSTQGMTEPYNGPDFGISFDQFGSPRCSFGLFPEWPSYLGYEKLGPYY
modifications: left off: a dimerising Fc or GST
For the molecule B4, the “binding of digoxigenin-labelled PP1γ” value in the data set with PP1γ is on record as “not”.
